Results from paper PMC11077971 (mBio, 2024).

Key:
E. coli BirA = target: T1, E. coli BirA (Escherichia coli, UniProt P06709); assay: HPLC-MS of biotinylated BCCP core; assay type: biochemical; details: apo-BCCP core (BC1) as acceptor protein, 10 µM biotin, 0.3 mM ATP, 5 mM MgCl2, pH 8.0, 37 °C
T1 construct: Met1-Lys321, N-terminal His6 tag (pET28a), E. coli BL21(DE3)

[1] = target: T2, ACC complex (biotinylated BC1 with CTβ-CTα) (Chloroflexus aurantiacus, UniProt A9WBQ8+A9WBQ9); assay: HPLC and MS detection of malonyl-CoA; assay type: biochemical; details: 10 mM acetyl-CoA, 40 mM bicarbonate, 1 mM ATP, 5 mM MgCl2, pH 9.0, RT
T2 construct: gene accD; His6-tagged, E. coli BL21(DE3); with Biotin carboxylase (acetyl-CoA carboxylase, biotin carboxylase; fused BC-BCCP)
T2 sequence (A9WBQ8 entry or part of it, one chain of several): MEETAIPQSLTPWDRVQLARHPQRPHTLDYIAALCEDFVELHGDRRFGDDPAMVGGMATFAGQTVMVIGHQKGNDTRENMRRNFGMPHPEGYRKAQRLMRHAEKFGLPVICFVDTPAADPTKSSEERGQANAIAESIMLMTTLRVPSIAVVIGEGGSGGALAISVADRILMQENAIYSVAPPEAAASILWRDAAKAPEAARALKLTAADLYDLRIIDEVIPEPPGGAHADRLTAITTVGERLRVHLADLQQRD
T2 sequence (A9WBQ9 24-305, one chain of several): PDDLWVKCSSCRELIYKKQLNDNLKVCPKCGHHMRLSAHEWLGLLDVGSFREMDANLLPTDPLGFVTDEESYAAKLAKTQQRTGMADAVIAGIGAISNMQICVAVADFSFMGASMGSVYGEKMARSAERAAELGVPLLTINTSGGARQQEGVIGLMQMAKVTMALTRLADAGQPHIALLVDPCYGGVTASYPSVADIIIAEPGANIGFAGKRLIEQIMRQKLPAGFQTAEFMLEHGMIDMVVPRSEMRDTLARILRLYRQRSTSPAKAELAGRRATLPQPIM

purified protein [2] = substrate: O=C(O)CCCC[C@@H]1SC[C@@H]2NC(=O)N[C@@H]21; assay: purified protein; details: apparent Km, free biotin as carboxyl acceptor, 40 mM bicarbonate, 2 mM ATP, 8 mM MgCl2, 100 mM Hepes pH 8.0, 25 °C
purified protein [3] = substrate: O=C(O)O; assay: purified protein; details: apparent Km, 40 mM biotin, 2 mM ATP, 8 mM MgCl2, 100 mM Hepes pH 8.0, 25 °C
[4] = target: the molecule itself; assay: crystal structure; hanging-drop vapor diffusion at 16°C; BC1 at 6.5 mg/mL, BC2 at 10 mg/mL in 20 mM Tris-HCl pH 8.0, 150 mM NaCl, 2 mM MgCl2; molecular replacement
[5] = target: the molecule itself; assay: AUC + SEC; sedimentation velocity, 42,000 rpm, 20°C, initial A280 ~0.7, Sedfit; gel filtration on a Superdex 200 column

T1 sequence (P06709 whole entry): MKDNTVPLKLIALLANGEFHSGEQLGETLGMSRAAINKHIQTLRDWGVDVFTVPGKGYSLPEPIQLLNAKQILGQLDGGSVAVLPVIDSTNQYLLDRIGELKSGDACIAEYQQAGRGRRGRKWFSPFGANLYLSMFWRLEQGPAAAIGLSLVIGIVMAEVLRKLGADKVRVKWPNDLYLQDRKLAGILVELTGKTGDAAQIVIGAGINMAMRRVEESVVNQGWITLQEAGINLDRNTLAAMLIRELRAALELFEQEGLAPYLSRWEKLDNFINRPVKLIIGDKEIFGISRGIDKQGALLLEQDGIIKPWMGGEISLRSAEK

O=C(O)CCCC[C@@H]1SC[C@@H]2NC(=O)N[C@@H]21 [biotin]
HPLC-MS of biotinylated BCCP core (E. coli BirA): BC1-BCCP domain can be biotinylated by both E. coli and C. aurantiacus BirA

CC(=O)SCCNC(=O)CCNC(=O)[C@H](O)C(C)(C)COP(=O)(O)OP(=O)(O)OC[C@H]1O[C@@H](n2cnc3c(N)ncnc32)[C@H](O)[C@@H]1OP(=O)(O)O [acetyl-CoA]
HPLC and MS detection of malonyl-CoA [1]: the reconstituted ACC complex is enzymatically active

B1: Chloroflexus aurantiacus BC2 (His6-tagged, Met1-Val455) (enzyme, Chloroflexus aurantiacus J-10-fl, UniProt A9WKH8 1-455, looked up)
chain: MIRKVLVANRGEIAVRIIRACQELGIRTVVAYSTADRDSLAVRLADEAVCIGPPPAAKSYLNAPALISAALVSGCDAIHPGYGFLSENPYFAEMCADCKLTFIGPPPEPIRLMGDKAIGRETMRKAGVPTVPGSDGEVRSLEEAIDVARQIGYPVLLKPSGGGGGRGMRVAYDEADLQRAFPTARAEAEAAFGNGALLLEKYLTRVRHVEIQVLADQYGHAIHLGERDCSAQRRHQKIVEEAPSPAVTPELRERMGADAVRGIKSIGYVNAGTLEFLLDQDGNYYFIEMNTRIQVEHPVTEQVTGIDLVRWQLLIASGERLTLRQEDIKITRHAIECRINAEDPERDFLPASGEVEFYLPPGGPGVRVDSHLYSGYTPPGTYDSLLAKIITFGDTRDEALNRMRRALNECVITGIKTTIPFQLALIDDPEFRAGRIHTGYVAELLRQWKETLNPV
notes: biotin carboxylase isoform BC2, Chloroflexus aurantiacus J-10-fl, 455 residues; Met1-Val455 is called full-length; also called His6-BC2; biotin carboxylase isoform 2; not shown: His6, N-terminal, kept
Km (purified protein [2]): 14.8 ± 2.2 mM
kcat (purified protein [2]): 16.7 s⁻¹
kcat/Km (purified protein [2]): 1160 M⁻¹ s⁻¹
Km (purified protein [3]): 6.7 ± 0.9 mM
kcat (purified protein [3]): 16.2 s⁻¹
kcat/Km (purified protein [3]): 2380 M⁻¹ s⁻¹
stoichiometry N [4]: 2

B2: BC1 (Chloroflexus aurantiacus J-10-fl) (protein)
chain: MFRTILVANRGEIALRVMRACRELGLRCVAVYSEADRDAPHVAYADDAFLIGPPSPAESYLNIDAIIRAAKATGAEAIHPGYGFLAENASFVRAVTAAGLIFIGPPAEAMERMGGKTAARREATAAGVPVVPGVLEPVTDAAEVRRLGKEFGYPIAIKAVGGGGGRGLRVVRSPEEVDEAFAAARREAEVAFKNGELYVEKYLDDPRHIEIQVLADRYGNAVALGERDCSVQRRHQKLIEECPSPALTPELRAEMGAAAVRLAKAVGYVSAGTLEFLFQDGRYYFLEMNTRIQVEHTVTEMVYGIDLVAAQIRIAQGEKLWFKQEDVVPRGHAIECRINAEDPLHNFRPALGTIGEYHEPVGFGVRVDSGVRAYYTVPSHYDSLLAKLITWGSDRQEAIARMRRALAEYRIEGVTTIIPFHQAALEHPVFTAGAATVNFIPRHPELFSRAAELTPPTAASAGAEPAPEPRRFTIEVNGRRFGVAVFGDGMNATPVASPSRSAPARRAAPKKTTLAAPVDAVISPIQGRVVAVRVAHGQQVEAGQVLFIVEAMKMENEITAPHSGTIAEVRVEVGTTVEAGAMLATYQNTANNTNGK
Km (purified protein [2]): 11.4 ± 0.2 mM
kcat (purified protein [2]): 19.1 s⁻¹
kcat/Km (purified protein [2]): 1670 M⁻¹ s⁻¹
Km (purified protein [3]): 4.5 ± 0.1 mM
kcat (purified protein [3]): 20.7 s⁻¹
kcat/Km (purified protein [3]): 4560 M⁻¹ s⁻¹

B3: His6-BC1ΔBCCP (Met1-Glu452) (domain or fragment, Chloroflexus aurantiacus J-10-fl, UniProt A9W9X0 1-452, looked up)
chain: MFRTILVANRGEIALRVMRACRELGLRCVAVYSEADRDAPHVAYADDAFLIGPPSPAESYLNIDAIIRAAKATGAEAIHPGYGFLAENASFVRAVTAAGLIFIGPPAEAMERMGGKTAARREATAAGVPVVPGVLEPVTDAAEVRRLGKEFGYPIAIKAVGGGGGRGLRVVRSPEEVDEAFAAARREAEVAFKNGELYVEKYLDDPRHIEIQVLADRYGNAVALGERDCSVQRRHQKLIEECPSPALTPELRAEMGAAAVRLAKAVGYVSAGTLEFLFQDGRYYFLEMNTRIQVEHTVTEMVYGIDLVAAQIRIAQGEKLWFKQEDVVPRGHAIECRINAEDPLHNFRPALGTIGEYHEPVGFGVRVDSGVRAYYTVPSHYDSLLAKLITWGSDRQEAIARMRRALAEYRIEGVTTIIPFHQAALEHPVFTAGAATVNFIPRHPELFSRAAE
notes: BC domain of biotin carboxylase isoform BC1, Chloroflexus aurantiacus J-10-fl; also called BCCP-truncated BC1 mutant; not shown: His6, N-terminal, kept
Km (purified protein [2]): 17.1 ± 1.2 mM
kcat (purified protein [2]): 15.6 s⁻¹
kcat/Km (purified protein [2]): 920 M⁻¹ s⁻¹
Km (purified protein [3]): 7.4 ± 0.3 mM
kcat (purified protein [3]): 14.3 s⁻¹
kcat/Km (purified protein [3]): 1930 M⁻¹ s⁻¹
stoichiometry N [5]: 2

B4: Chloroflexus aurantiacus BC1 (His6-tagged, Met1-Lys596), not biotinylated in vitro (enzyme, Chloroflexus aurantiacus J-10-fl, UniProt A9W9X0 1-596, looked up)
chain: MFRTILVANRGEIALRVMRACRELGLRCVAVYSEADRDAPHVAYADDAFLIGPPSPAESYLNIDAIIRAAKATGAEAIHPGYGFLAENASFVRAVTAAGLIFIGPPAEAMERMGGKTAARREATAAGVPVVPGVLEPVTDAAEVRRLGKEFGYPIAIKAVGGGGGRGLRVVRSPEEVDEAFAAARREAEVAFKNGELYVEKYLDDPRHIEIQVLADRYGNAVALGERDCSVQRRHQKLIEECPSPALTPELRAEMGAAAVRLAKAVGYVSAGTLEFLFQDGRYYFLEMNTRIQVEHTVTEMVYGIDLVAAQIRIAQGEKLWFKQEDVVPRGHAIECRINAEDPLHNFRPALGTIGEYHEPVGFGVRVDSGVRAYYTVPSHYDSLLAKLITWGSDRQEAIARMRRALAEYRIEGVTTIIPFHQAALEHPVFTAGAATVNFIPRHPELFSRAAELTPPTAASAGAEPAPEPRRFTIEVNGRRFGVAVFGDGMNATPVASPSRSAPARRAAPKKTTLAAPVDAVISPIQGRVVAVRVAHGQQVEAGQVLFIVEAMKMENEITAPHSGTIAEVRVEVGTTVEAGAMLATYQNTANNTNGK
notes: biotin carboxylase isoform BC1 with fused BC (Met1-Glu452) and BCCP (Ala459-Lys596) domains, Chloroflexus aurantiacus J-10-fl, 596 residues; the pull-down control was; also called His6-BC1; unbiotinylated BC1; source: for the pull-down passed over streptavidin agarose to remove the biotinylated fraction; not shown: His6, N-terminal, kept
stoichiometry N [4]: 4

B5: BC1ΔBCCP^β-hairpin (BC1 lacking Thr473-Gly486) (enzyme, Chloroflexus aurantiacus J-10-fl, UniProt A9W9X0 1-596, looked up)
chain: MFRTILVANRGEIALRVMRACRELGLRCVAVYSEADRDAPHVAYADDAFLIGPPSPAESYLNIDAIIRAAKATGAEAIHPGYGFLAENASFVRAVTAAGLIFIGPPAEAMERMGGKTAARREATAAGVPVVPGVLEPVTDAAEVRRLGKEFGYPIAIKAVGGGGGRGLRVVRSPEEVDEAFAAARREAEVAFKNGELYVEKYLDDPRHIEIQVLADRYGNAVALGERDCSVQRRHQKLIEECPSPALTPELRAEMGAAAVRLAKAVGYVSAGTLEFLFQDGRYYFLEMNTRIQVEHTVTEMVYGIDLVAAQIRIAQGEKLWFKQEDVVPRGHAIECRINAEDPLHNFRPALGTIGEYHEPVGFGVRVDSGVRAYYTVPSHYDSLLAKLITWGSDRQEAIARMRRALAEYRIEGVTTIIPFHQAALEHPVFTAGAATVNFIPRHPELFSRAAELTPPTAASAGAEPAPEPRRFGDGMNATPVASPSRSAPARRAAPKKTTLAAPVDAVISPIQGRVVAVRVAHGQQVEAGQVLFIVEAMKMENEITAPHSGTIAEVRVEVGTTVEAGAMLATYQNTANNTNGK
notes: biotin carboxylase isoform BC1, Chloroflexus aurantiacus J-10-fl, with the β-hairpin motif Thr473-Gly486 deleted; Vector pET28a-bc1Δbccp^β-hairpin; source: E. coli BL21(DE3), purified
stoichiometry N [5]: 2

B6: His6-BC1ΔBCCP^Core (Met1-Lys510) (domain or fragment, Chloroflexus aurantiacus J-10-fl, UniProt A9W9X0 1-510, looked up)
chain: MFRTILVANRGEIALRVMRACRELGLRCVAVYSEADRDAPHVAYADDAFLIGPPSPAESYLNIDAIIRAAKATGAEAIHPGYGFLAENASFVRAVTAAGLIFIGPPAEAMERMGGKTAARREATAAGVPVVPGVLEPVTDAAEVRRLGKEFGYPIAIKAVGGGGGRGLRVVRSPEEVDEAFAAARREAEVAFKNGELYVEKYLDDPRHIEIQVLADRYGNAVALGERDCSVQRRHQKLIEECPSPALTPELRAEMGAAAVRLAKAVGYVSAGTLEFLFQDGRYYFLEMNTRIQVEHTVTEMVYGIDLVAAQIRIAQGEKLWFKQEDVVPRGHAIECRINAEDPLHNFRPALGTIGEYHEPVGFGVRVDSGVRAYYTVPSHYDSLLAKLITWGSDRQEAIARMRRALAEYRIEGVTTIIPFHQAALEHPVFTAGAATVNFIPRHPELFSRAAELTPPTAASAGAEPAPEPRRFTIEVNGRRFGVAVFGDGMNATPVASPSRSAPARRAAPK
notes: biotin carboxylase isoform BC1 without the BCCP core, Chloroflexus aurantiacus J-10-fl; The cloning of this construct is not described in the methods; source: E. coli BL21(DE3), purified
stoichiometry N [5]: 4
